The text below walks through data of patent publication US20260167679A1, “FUSION PROTEIN TARGETING MITOCHONDRIA, METHOD OF MAKING AND USE THEREOF” (UNIVERSITY OF ROCHESTER, priority 2020, published 2026).

In test [1] the test system is isolated C. elegans mitochondria. Put plainly: ATP measurement in isolated mitochondria (luciferase). It is filed as biochemical, Caenorhabditis elegans. Conditions: isolated mitochondria supplied with ADP, mtON activation. How it is done: Relative ATP levels were determined in isolated mitochondria given a known amount of ADP to test the ability of mtON to drive ATP synthesis. A luciferase bioluminescence kit was used according to the manufacturer's instructions (Invitrogen™ Molecular Probes™, A22066). Mitochondria were stirred in MRB at 0.5 mg/ml with 1 mg/ml fat-free BSA, 600 μM ADP, and 2 μM rotenone. 5 mM succinate was used for a control for maximum ATP level, and 0.001 mg/ml oligomycin A was used as a zero ATP synthesis control. Mitochondrial suspensions were immediately frozen with liquid nitrogen after 1, 5, or 10 min light exposure (XCite LED, 0.02 mW/mm^2). Samples were then thawed on ice, centrifuged at 14,800 g, and supernatant was collected and run at 1:100 dilution in MRB in the luminescence assay. Oligomycin A control values were subtracted from experimental reads, and data were then normalized to luminescent signal from succinate control samples (complete ADP conversion confirmed by monitoring 02 consumption rate transitions).

The test system is the same in test [2]. Briefly: Mitochondrial O2 consumption (Clark-type electrode). It is filed as biochemical, Caenorhabditis elegans. Conditions: isolated mitochondria fueled with substrates, mtON activated. How it is done: O2 consumption was measured using a Clark-type O2 electrode (S1 electrode disk, DW2/2 electrode chamber and Oxy-Lab control unit, Hansatech Instruments, Norfolk UK) at 25° C. Isolated mitochondria were stirred in MRB at 1 mg/ml with 1 mg/ml fat-free BSA. Substrates and inhibitors were added by syringe port (100 μM ADP, 2 μM rotenone, 5 mM succinate). Given excess succinate as substrate for ETC respiration, we measured the amount of O2 required to convert 50 nmol of ADP to ATP and established a baseline for comparison. To test mtON activity, mitochondria were illuminated as in the ATP measurement, for 1, 5, or 10 min in the presence of ADP without succinate to allow for mtON conversion of ADP to ATP. Any remaining ADP was then converted using 02-dependent ETC respiration upon succinate addition. Slopes were calculated from plots of O2 concentration versus time to give rates of 02 consumption during ADP respiration, ADP+succinate respiration, and respiration after ADP had been entirely consumed. The intersections of these three rates were used to calculate total amount of O2 consumed during ADP+succinate respiration. Light activation of mitochondria (XCite LED, 0.02 mW/mm^2) during ADP respiration alone was carried out for differing lengths of time to test the ability of mtON to drive ADP consumption before succinate was added. […]

B1: mtON: fusion of the 187 N-terminal amino acids of mouse IMMT1 to the light-activated proton pump (Mac) from Leptosphaeria maculans (protein)
chain: MLRACQLSGVTVAAQSCLCGKFVLRPLRPCRRYSTSSSSGLTAGKIAGAGLLFVGGGIGGTILYAKWDSHFRESVEKTIPYSDKLFGMVLGSAPYTVPLPKKPVQSGPLKISSVSEVMKDSKLPVAQSQKTKGDTPASAASTGAAQIISAAGDTLSVPAPAVQHEDTIKTECPNTNEGKSTSETTEEPAGLIVDQFEEVLMKTSQLFPLPTATQSAQPTHVAPVPTVLPDTPIYETVGDSGSKTLWVVFVLMLIASAAFTALSWKIPVNRRLYHVITTIITLTAALSYFAMATGHGVALNKIVIRTQHDHVPDTYETVYRQVYYARYIDWAITTPLLLLDLGLLAGMSGAHIFMAIVADLIMVLTGLFAAFGSEGTPQKWGWYTIACIAYIFVVWHLVLNGGANARVKGEKLRSFFVAIGAYTLILWTAYPIVWGLADGARKIGVDGEIIAYAVLDVLAKGVFGAWLLVTHANLRESDVELNGFWANGLNREGAIRIGEDDGAR
modifications: Synthetic Complete mtON fusion protein sequence
In the case of B1, the ATP levels entry in test [1] is on record as “increased ATP levels”. The “oxygen needed to make ATP” value in test [2] is “decreased reliance on oxygen to make ATP”.
